According to patent publication US6660837B1, “Modified protein derived from protein kinase N” (Kirin Beer Kabushiki Kaisha, priority 1995, dated 2003):

Columns and labels:
[1] = molecular target: T1, in vitro translated PKNN2 (Homo sapiens, UniProt Q16512); test: In vitro binding of GST-HuActSkl fragments to PKNN2; conditions: resistant to 0.5% Triton X-100/0.5 M NaCl wash
T1 construct: made in house; host or cells: in vitro translation in rabbit reticulocyte lysate (Promega)
Procedure: In vitro transcription for the N-terminal region of PKN (the amino acid sequence 1-474, this region being designated as PKNN2 (Example 8)) was performed as described in Example 8. For in vitro translation, cRNAs were translated in rabbit reticulocyte lysate (Promega) in the presence of [^35S] methionine as described in Example 8.
For in vitro binding experiment, 2 μl of in vitro translated PKNN2 was mixed with 5 μg of each GST-α-actinin fusion protein or with 25 μg of GST alone in 400 μl of GST binding buffer (20 mM Tris/HCl at pH 7.5, 0.5 mM DTT, 150 mM NaCl, 0.05% Triton-X100, 1 mM EDTA, 1 μg/ml leupeptin) and incubated for 1 hr at 4° C. After addition of 25 μl of glutathione-Sepharose 4B pretreated with 10 mg/ml of E. coli extract to block nonspecific binding, the binding reaction was continued for additional 30 min at 4° C. The glutathione-Sepharose 4B was then washed four times in GST washing buffer (20 mM Tris/HCl at pH 7.5, 0.5 mM DTT, 1 mM EDTA, 1 μg/ml leupeptin) containing 0.5 M NaCl and 0.5% Triton X-100, and further washed with GST washing buffer. Bound proteins were eluted with GST elution buffer (100 mM Tris/HCl at pH 7.5, 10 mM glutathione, 120 mM NaCl, 1 mM EDTA, 0.5 mM DTT, 1 μg/ml leupeptin) and were subjected to SDS-PAGE. The binding was visualized and quantitated by an imaging analyzer (FUJI BAS1000).

RhoA^Val14 CLVL^− = molecular target: T2, RhoA^Val14 CLVL^− (Homo sapiens, UniProt P61586, G14V); test: Yeast two-hybrid, truncated PKN with RhoA^Val14CLVL^−; format: binding; conditions: yeast L40
T2 construct: expressed in transfected cells; host or cells: yeast strain L40
Excerpt: The cDNA fragments encoding various length of human PKN were inserted into the vector pBTM116 (Example 7) in frame with the upstream LexA DNA-binding domain sequences or the vector pVP16 (Example 7) in frame with the upstream VP16 transcription activation domain sequences. The cDNA fragments encoding human RhoA, RhoA^Val14, and RhoA^Ala37 were obtained by digesting pGEX-RhoA, pGEX-RhoA^Val14, and pGEX-RhoA^Ala37 (Example 1) with restriction enzymes, respectively, then cloned into pBTM116 and pVP16.
The expression plasmids were transfected into yeast L40 cells and plated on semi-solid media lacking tryptophan and leucine. Interaction was examined using a filter lift assay for the β-galactosidase activity in the same manner as in Example 6. […]

[2] = molecular target: T3, purified PKN from rat testis (Rattus norvegicus, UniProt Q63433); test: Phosphorylation of native NF by PKN; format: biochemical; conditions: native bovine NF, with arachidonic acid; estimated by image quant
T3 construct: The purified PKN (1 ng) from rat testis cytosol; from tissue; host or cells: rat testis (cytosol / soluble fraction)
Procedure: Native NFs were prepared from bovine spinal cords according to a method described in Hisanaga, S. & Hirokawa, N., J. Mol. Biol. 202, 297-305 (1988). Kinase assay was carried out according to the following method.
(§1) Soluble cytosolic extract of spinal cord or purified NF proteins were boiled for 5 min to destroy endogenous protein kinase activity prior to their use as phosphate acceptors. The phosphorylation of NF preparations was carried out at 30° C. in an assay mixture containing 20 mM Tris/HCl at pH 7.5, 8 mM MgCl2, 100 μM ATP, 185 kBq of [γ-^32P]ATP, each subunit of NF, 20 ng/ml of purified PKN from rat testis, and with/without 40 μM arachidonic acid as indicated in each experiment. Reactions were terminated after various times by the addition of an equal volume of Laemli's sample buffer, and separation was performed on 7% SDS-PAGE. The gels were dried under vacuum and exposure to BAS1000 bio-imaging analyzer. Dephosphorylation of NF proteins was conducted with calf intestine alkaline phosphatase according to a method described in Carden, M. J. et al., J. Biol. Chem. 260, 9805-9817 (1985) and terminated after boiling for 5 min.

PKN = molecular target: T4, PKN (Rattus norvegicus, UniProt Q63433); test: Phosphorylation of recombinant GST-NF domains by PKN; format: biochemical; conditions: GST-head-rod domain of each NF subunit
T4 construct: The purified PKN (1 ng) from rat testis cytosol; from tissue; host or cells: rat testis (cytosol / soluble fraction)
Procedure: as §1
(2) Phosphorylation of Recombinant NF by PKN To identify the region containing the phosphorylation site of NF by PKN, GST-head-rod and -tail domain of each subunit of NFs were bacterially synthesized (Example 8), and subjected to in vitro phosphorylation assay in the same manner as described above. […] The GST-tail domain of each subunit was not labeled at all. PKN also phosphorylated the GST-head-rod domain of vimentin (data not shown).

T1 sequence (Q16512 1-474): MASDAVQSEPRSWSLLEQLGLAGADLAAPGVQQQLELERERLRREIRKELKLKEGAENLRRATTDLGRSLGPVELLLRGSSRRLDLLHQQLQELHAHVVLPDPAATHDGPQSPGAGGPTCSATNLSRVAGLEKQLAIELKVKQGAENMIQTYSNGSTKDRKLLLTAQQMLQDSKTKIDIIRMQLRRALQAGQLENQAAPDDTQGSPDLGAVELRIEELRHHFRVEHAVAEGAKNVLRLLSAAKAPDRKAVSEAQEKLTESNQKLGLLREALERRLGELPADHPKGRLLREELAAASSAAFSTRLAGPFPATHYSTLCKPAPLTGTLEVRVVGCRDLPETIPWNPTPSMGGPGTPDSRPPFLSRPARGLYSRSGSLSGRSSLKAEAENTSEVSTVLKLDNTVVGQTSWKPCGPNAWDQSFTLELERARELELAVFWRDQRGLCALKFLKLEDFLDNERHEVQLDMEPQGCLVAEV
T4 sequence (Q63433 whole entry, the tested form may be a part): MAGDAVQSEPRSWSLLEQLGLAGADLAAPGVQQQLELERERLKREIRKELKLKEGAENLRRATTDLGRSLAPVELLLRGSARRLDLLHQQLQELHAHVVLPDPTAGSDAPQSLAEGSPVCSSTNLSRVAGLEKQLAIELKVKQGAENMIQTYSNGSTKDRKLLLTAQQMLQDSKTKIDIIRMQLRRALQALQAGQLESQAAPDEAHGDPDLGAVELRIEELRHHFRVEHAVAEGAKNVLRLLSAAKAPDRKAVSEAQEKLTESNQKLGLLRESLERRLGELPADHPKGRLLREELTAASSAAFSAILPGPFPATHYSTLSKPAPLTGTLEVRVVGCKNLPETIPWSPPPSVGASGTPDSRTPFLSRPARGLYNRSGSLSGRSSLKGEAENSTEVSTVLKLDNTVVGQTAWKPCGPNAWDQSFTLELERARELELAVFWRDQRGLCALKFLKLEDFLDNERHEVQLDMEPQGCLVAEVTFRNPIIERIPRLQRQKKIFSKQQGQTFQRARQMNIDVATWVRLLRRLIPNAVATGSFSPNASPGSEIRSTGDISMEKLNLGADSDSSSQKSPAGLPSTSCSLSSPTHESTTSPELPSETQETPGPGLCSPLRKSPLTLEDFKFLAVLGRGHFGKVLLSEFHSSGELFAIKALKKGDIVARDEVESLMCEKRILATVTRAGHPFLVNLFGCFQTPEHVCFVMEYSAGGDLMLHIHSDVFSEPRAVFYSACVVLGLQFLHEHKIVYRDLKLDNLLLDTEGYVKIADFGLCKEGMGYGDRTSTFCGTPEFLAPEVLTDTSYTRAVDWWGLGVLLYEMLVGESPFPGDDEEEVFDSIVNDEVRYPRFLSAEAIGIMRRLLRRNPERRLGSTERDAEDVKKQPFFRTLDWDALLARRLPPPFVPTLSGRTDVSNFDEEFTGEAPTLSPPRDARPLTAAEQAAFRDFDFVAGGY
T3 sequence (Q63433 whole entry): as the sequence (Q63433 whole entry, the tested form may be a part) above
T2 sequence (P61586 1-189 G14V): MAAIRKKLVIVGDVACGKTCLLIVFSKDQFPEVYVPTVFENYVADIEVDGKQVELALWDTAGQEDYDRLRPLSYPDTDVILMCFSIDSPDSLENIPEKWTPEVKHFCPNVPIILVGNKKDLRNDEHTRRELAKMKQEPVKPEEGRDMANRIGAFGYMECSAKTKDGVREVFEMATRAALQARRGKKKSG

B1: HuActSkl (423-653): human skeletal muscle type α-actinin fragment, GST fusion (protein)
chain: ILLQKDYESASLTEVRALLRKHEAFESDLAAHQDRVEQIAAIAQELNELDYHDAVNVNDRCQKICDQWDRLGTLTQKRREALERMEKLLETIDQLHLEFAKRAAPFNNWMEGAMEDLQDMFIVHSIEEIQSLITAHEQFKATLPEADGERQSIMAIQNEVEKVIQSYNIRISSSNPYSTVTMDELRTKWDKVKQLVPIRDQSLQEELARQHANERLRRQFAAQANAIGPWI
modifications: left off: a dimerising Fc or GST
notes: human skeletal muscle type α-actinin fragment, GST fusion
[1]
  binding of in vitro translated PKNN2 to the fragment: strongly bound

B2: amino acid sequence 3-135: truncated human PKN, amino acid sequence 3-135 in SEQ ID NO: 1, two-hybrid fusion (protein, UniProt Q16512 3-135, looked up, fragment)
chain: SDAVQSEPRSWSLLEQLGLAGADLAAPGVQQQLELERERLRREIRKELKLKEGAENLRRATTDLGRSLGPVELLLRGSSRRLDLLHQQLQELHAHVVLPDPAATHDGPQSPGAGGPTCSATNLSRVAGLEKQL
modifications: two-hybrid fusion
RhoA^Val14 CLVL^−
  interaction with RhoA^Val14 CLVL^− (β-galactosidase filter assay): interacted

B3: HuActSkl (653-837): human skeletal muscle type α-actinin fragment, GST fusion (protein)
chain: IQNKMEEIARSSIQITGALEDQMNQLKQYEHNIINYKNNIDKLEGDHQLIQEALVFDNKHTNYTMEHIRVGWELLLTTIARTINEVETQILTRDAKGITQEQMNEFRASFNHFDRRKNGLMDHEDFRACLISMGYDLGEAEFARIMTLVDPNGQGTVTFQSFIDFMTRETADTDTAEQVIASFRI
modifications: left off: a dimerising Fc or GST
notes: as for B1
[1]
  binding of in vitro translated PKNN2 to the fragment: strongly bound

B4: HuActSkl (486-607): human skeletal muscle type α-actinin fragment, spectrin-like repeat 3, GST fusion (protein, UniProt P35609 486-607, looked up, fragment)
chain: ICDQWDRLGTLTQKRREALERMEKLLETIDQLHLEFAKRAAPFNNWMEGAMEDLQDMFIVHSIEEIQSLITAHEQFKATLPEADGERQSIMAIQNEVEKVIQSYNIRISSSNPYSTVTMDEL
modifications: GST fusion
notes: human skeletal muscle type α-actinin fragment, spectrin-like repeat 3, GST fusion
[1]
  binding of in vitro translated PKNN2 to the fragment: strongly bound

B5: NFL: neurofilament subunit L; native bovine in b342, GST-head-rod domain fusion in b344 (protein, UniProt P02548 2-555, looked up)
Neurofilament light …: SSFSYEPYYSTSYKRRYVETPRVHISSVRSGYSTARSAYSSYSAPVSSSLSVRRSYSSSSGSLMPSLESLDLSQVAAISNDLKSIRTQEKAQLQDLNDRFASFIERVHELEQQNKVLEAELLVLRQKHSEPSRFRALYEQEIRDLRLAAEDATNEKQALQGEREGLEETLRNLQARYEEEVLSREDAEGRLMEARKGADEAALARAELEKRIDSLMDEIAFLKKVHEEEIAELQAQIQYAQISVEMDVSSKPDLSAALKDIRAQYEKLAAKNMQNAEEWFKSRFTVLTESAAKNTDAVRAAKDEVSESRRLLKAKTLEIEACRGMNEALEKQLQELEDKQNADISAMQDTINKLENELRTTKSEMARYLKEYQDLLNVKMALDIEIAAYRKLLEGEETRLSFTSVGSLTTGYTQSSQVFGRSAYGGLQTSSYLMSARSFPSYYTSHVQEEQIEVEETIEAAKAEEAKDEPPSEGEAEEEEKEKEEAEAEAEAEAEAEAEEEEGAQEEEAAKEDAEEAKEEEGGEGEEAEETKEAEEEEKKDEGAGEEQATKKKD
[2]
  extent of maximal phosphorylation by PKN per mol subunit of protein: about 1 mol/mol
PKN
  relative 32P incorporation into GST-head-rod domain (ratio NFH:NFM:NFL): 2

B6: NFM: neurofilament subunit M; native bovine in b342, GST-head-rod domain fusion in b344 (protein, UniProt O77788 2-926, looked up)
Neurofilament medium …: SYTLDSLGNPSAYRRVTETRSSFSRISGSPSSGFRSQSWSRGSPSTVSSSYKRSALAPRLTYSSAMLSSAESSLDFSQSSSLLDGGSGPGGDYKLSRSNEKEQIQGLNDRFAGYIEKVHYLEQQNKEIEAEIQALRQKQASHAQLGDAYDQEIRELRATLEMVNHEKAQVQLDSDHLEEDIHRLKERFEEEARLRDDTEAAIRALRKDIEESSLVKVELDKKVQSLQDEVAFLRSNHEEEVADLLAQIQASHITVERKDYLKTDISTALKEIRSQLESHSDQNMHQAEEWFKCRYAKLTEAAEQNKEAIRSAKEEIAEYRRQLQSKSIELESVRGTKESLERQLSDIEERHNHDLSSYQDTIQQLENELRGTKWEMARHLREYQDLLNVKMALDIEIAAYRKLLEGEETRFSTFAGSITGPLYTHRQPSIAISSKIQKTKVEAPKLKVQHKFVEEIIEETKVEDEKSEMEEALTAITEELAVSVKEEVKEEEAEEKEEKEEAEEEVVAAKKSPVKATAPELKEEEGEKEEEEGQEEEEEEEEAAKSDQAEEGGSEKEGSSEKEEGEQEEEGETEAEGEGEEAAAEAKEEKKMEEKAEEVAPKEELAAEAKVEKPEKAKSPVAKSPTTKSPTAKSPEAKSPEAKSPTAKSPTAKSPVAKSPTAKSPEAKSPEAKSPTAKSPTAKSPAAKSPAPKSPVEEVKPKAEAGAEKGEQKEKVEEEKKEAKESPKEEKAEKKEEKPKDVPEKKKAESPVKAESPVKEEVPAKPVKVSPEKEAKEEEKPQEKEKEKEKVEEVGGKEEGGLKESRKEDIAINGEVEGKEEEQETKEKGSGGEEEKGVVTNGLDVSPGDEKKGGDKSEEKVVVTKMVEKITSEGGDGATKYITKSVTVTQKVEEHEETFEEKLVSTKKVEKVTSHAIVKEVTQSD
[2]
  extent of maximal phosphorylation by PKN per mol subunit of protein: about 6 mol/mol
PKN
  relative 32P incorporation into GST-head-rod domain (ratio NFH:NFM:NFL): 10

B7: HuActSkl (604-719): human skeletal muscle type α-actinin fragment, GST fusion (protein)
chain: MDELRTKWDKVKQLVPIRDQSLQEELARQHANERLRRQFAAQANAIGPWIQNKMEEIARSSIQITGALEDQMNQLKQYEHNIINYKNNIDKLEGDHQLIQEALVFDNKHTNYTMEH
modifications: left off: a dimerising Fc or GST
notes: as for B1
[1]
  binding of in vitro translated PKNN2 to the fragment: not
